The text below walks through data of US20030236190A1 (published 2003).

Read-outs that look alike come from different tables or passages of the source. Positions of bridges follow the written chain, without caps; N, C: chain ends. No end group written: not given here.

The target of assay [1] is human IGF-1R on FDCP-2 cells (human, UniProt P08069 31-1367). In words: cell-based or functional assay.
For assay [2], the target named is T1, recombinant human IGF-1R (rhIGF-1R) (human, UniProt P08069 31-935).
T1 construct: extracellular domain; Coated on plates in the TRF assay and europium-labelled (LANCE) in the TR-FRET assays; also called rhIGE-1R; Eu3+-rhIGF-1R
The assay is described as follows: heterogeneous TRF (DELFIA) competition with b-rhIGF-1 for plate-coated rhIGF-1R. The procedure: (§1) The plates were incubated for 2 hr at RT.

For assay [3], the target named is T1, recombinant human IGF-1R (rhIGF-1R). In words: column 'nM Ki app Kd' of Table 15 (IGF-1R summary); values match the TRF competition with b-rhIGF-1 on rhIGF-1R of Table 20. Here is the method: as §1
For assay [4] the target is unchanged. In words: TR-FRET competition with b-20E2 for rhIGF-1R. (In TR-FRET formats the signal depends on donor and acceptor labels being close together.)
For assay [5] the target is unchanged. The assay is described as follows: TR-FRET competition with b-20E2 for Eu3+-rhIGF-1R.
For assay [6], the target named is T2, soluble human insulin receptor-immunoglobulin heavy chain chimera (sIR-Fc) (human, UniProt P06213 28-956, limits assumed).
T2 construct: extracellular domain; also called sIR-Ec; not shown: immunoglobulin heavy chain constant domains
In words: fluorescence polarization competition with FITC-RP9 for sIR-Fc. On the technique in general: In fluorescence polarisation assays a small probe gives low polarisation when free and higher when bound to something large.

In assay [7] the target is T1, recombinant human IGF-1R (rhIGF-1R). In words: ratio of the IC50 at rhIGF-1R (TR-FRET) to the IC50 at sIR-Fc (FP); higher values indicate higher affinity for IR than IGF-1R.
For assay [8], the target named is T3, Human insulin receptor (HIR), purified from transfected cells after solubilization with Triton X-100 (human, UniProt P06213 28-1382, limits assumed).
T3 construct: Detergent-solubilised receptor
In words: competition with 125I-insulin for solubilised HIR, PEG precipitation; Kd calculated from the competition curve.

Assay [9] addresses T3, Human insulin receptor (HIR), purified …. The assay is described as above. This is another data set of the same source.
Assay [10] has as its target T4, soluble HIR ectodomain (sIR) (human, UniProt P06213-2 28-944, limits assumed).
T4 construct: extracellular domain
In words: FP competition vs FITC-RP9, sIR. An excerpt:
Fluorescence polarization assays (FP) were used for peptide competition studies.

For assay [11], the target named is T5, soluble human insulin receptor-immunoglobulin heavy chain chimera (sIR-Fc) (human, UniProt P06213 28-956, limits assumed, Eu3+ label (LANCE) in the TR-FRET assays).
T5 construct: extracellular domain; construct of Bass et al., 1996; also called HIR-immunoglobulin heavy chain chimera; not shown: immunoglobulin heavy chain constant domains
The assay is described as follows: TR-FRET competition vs b-S175, sIR-Fc. The procedure: The TR-FRET assays were performed in a 384-well white microplate with a final volume of 30 μl.

Assay [12] concerns the target T6, human insulin receptor (HIR) (human, UniProt P06213 28-1382, limits assumed). In words: Kd(HIR), insulin competition.
Assay [13] concerns the target T6, human insulin receptor (HIR). In words: cell-based or functional assay.
Assay [14] concerns the target insulin receptor (IR) on mouse free fat cells (mouse, UniProt P15208 28-1372). The assay is described as follows: cell-based or functional assay.
For assay [15], the target named is T6, human insulin receptor (HIR). The assay is described as follows: 125I-insulin competition, solubilised HIR.
For assay [16], the target named is T3, Human insulin receptor (HIR), purified …. In words: competition with 125I-insulin for solubilised HIR, PEG precipitation; Kd calculated from the competition curve. This is another data set of the same source.
The target in assay [17] is human IGF-1R on FDCP-2 cells (human, UniProt P08069 31-1367). In words: cell-based or functional assay. This is another data set of the same source.
Assay [18] addresses human IGF-1 receptor (HIGF-1R) (human, UniProt P08069 31-1367). In words: 125I-IGF-1 competition, solubilised HIGF-1R.

Sequence of insulin receptor (IR) on mouse free fat cells (P15208 28-1372): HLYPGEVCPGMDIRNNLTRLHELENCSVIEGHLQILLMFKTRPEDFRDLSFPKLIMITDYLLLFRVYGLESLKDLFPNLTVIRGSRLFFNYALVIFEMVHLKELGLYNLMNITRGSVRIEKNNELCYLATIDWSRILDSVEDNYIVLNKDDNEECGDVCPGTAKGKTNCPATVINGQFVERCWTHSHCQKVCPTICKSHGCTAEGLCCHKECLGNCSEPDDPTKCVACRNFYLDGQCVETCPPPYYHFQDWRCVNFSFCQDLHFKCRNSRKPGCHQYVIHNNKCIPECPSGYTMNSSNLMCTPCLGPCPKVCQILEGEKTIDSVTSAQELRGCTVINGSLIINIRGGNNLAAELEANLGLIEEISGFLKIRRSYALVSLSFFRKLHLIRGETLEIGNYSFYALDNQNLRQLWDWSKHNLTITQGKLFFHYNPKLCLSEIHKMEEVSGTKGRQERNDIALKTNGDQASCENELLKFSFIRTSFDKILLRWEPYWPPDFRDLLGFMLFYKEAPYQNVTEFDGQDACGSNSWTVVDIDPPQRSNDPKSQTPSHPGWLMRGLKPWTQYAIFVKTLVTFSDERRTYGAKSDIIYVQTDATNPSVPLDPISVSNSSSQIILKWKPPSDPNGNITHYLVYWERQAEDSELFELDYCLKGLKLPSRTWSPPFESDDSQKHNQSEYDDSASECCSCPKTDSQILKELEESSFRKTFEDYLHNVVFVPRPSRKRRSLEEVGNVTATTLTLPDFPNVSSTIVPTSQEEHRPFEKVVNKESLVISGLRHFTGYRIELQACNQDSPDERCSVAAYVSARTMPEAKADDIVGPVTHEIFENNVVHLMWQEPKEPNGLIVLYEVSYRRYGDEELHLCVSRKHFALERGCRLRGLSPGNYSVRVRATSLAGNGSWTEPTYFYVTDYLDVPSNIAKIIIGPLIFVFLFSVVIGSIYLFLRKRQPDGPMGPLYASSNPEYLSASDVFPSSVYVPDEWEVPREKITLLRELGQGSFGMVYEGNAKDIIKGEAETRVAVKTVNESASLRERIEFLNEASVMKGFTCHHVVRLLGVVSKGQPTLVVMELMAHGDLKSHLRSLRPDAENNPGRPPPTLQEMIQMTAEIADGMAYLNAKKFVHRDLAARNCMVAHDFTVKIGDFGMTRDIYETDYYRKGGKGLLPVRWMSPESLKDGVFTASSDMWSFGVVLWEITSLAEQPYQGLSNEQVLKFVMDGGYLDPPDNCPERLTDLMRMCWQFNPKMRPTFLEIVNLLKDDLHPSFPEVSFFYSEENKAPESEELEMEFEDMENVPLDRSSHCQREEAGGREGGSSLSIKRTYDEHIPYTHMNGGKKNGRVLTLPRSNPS

For orientation: IC50 means the concentration at which inhibition is half-maximal. With WLDQERAWLWCEISGRGCLS (disulfide 11-18 (inferred), Recombinant form) [recombinant peptide surrogate D815 (rD815)], in [1], the “ED50 Growth” value stood at 500 nM and the “Max Action” value was > 50%. Besides, the IC50 in assay [2] was found to be 4080 nM. Moreover, the Ki in assay [3] turned out to be 4080 nM.
For the molecule GSLDESFYDWFERQLG (also called RP9 minus terminal lysines) [RP9], the “IC50 Antag.” value in assay [1] is 900 nM. Also, in assay [1], the Ki/ED50 was determined as 0.5. Moreover, in assay [1], the “Max Action” value is < 10%. In addition, the IC50 in assay [4] is 33 nM; in assay [5] it was 39.3 nM; in assay [6], 24 nM; in [2] it was 417 nM. Besides, the Ki in assay [3] came to 417 nM. Also, the “Binding Ratio IGF-1R/IR” value in assay [7] came to 1.4.
As usually defined, the Kd is the free concentration of one partner at which half of the binding sites on the other are occupied at equilibrium, for simple one-to-one binding. Consider ESFYDWFERQL (Synthetic truncated RP9 monomer peptide) [S399], for which the Kd in assay [8] and in assay [9] was 91 nM throughout.

B1: D815-6aa-G33 (peptide)
peptide: WLDQERAWLWCEISGRGCLSGGSGGSGIISQSCPESFYDWFAGQVSDPWWCW
notes: Site 2-Site 1 dimer peptide, recombinant; also called D815-G33 (6 aa linker); D815-6-G33
With B1, the “Max Action” value in assay [1] was < 10%. Moreover, the IC50 in [2] amounted to 624 nM. In assay [3], the Ki was 624 nM.
As for EEDWLQRNANFYDWFVAELX (C-terminal Lig'; copies joined C-C by chemical linker 9, also called (EE-short-S175-Lig)2-9) [S380], the values for the IC50 in assay [10] and in assay [11] were 0.5 nM and 10 nM, respectively.
Turning to GIISQSCPESFYDWFAGQVSDPWWCW (Recombinant form) [recombinant peptide surrogate G33 (rG33)], in assay [1], the “ED50 Growth” value was 500 nM, the Ki/ED50 is 2.9 and the “Max Action” value was > 50. In [2], the IC50 was 1450 nM. For the same molecule, the Ki in assay [3] is 1450 nM.

B2: 464 (other, not shown: large carriers; small tags and cut ends)
chain: NNNNLGIEGRISEFIEGRDYKDDDDKFHENFYDWFVRQVSAAGAPVPYPDPLEPRAA
notes: MBP fusion
B2 had a Kd in assay [12] of 39 nM.

B3: 539 (peptide)
peptide: MADYKDDDDKWLDQEWAWVQCEVYGRGCPSGGSGGSGSLDESFYDWFERQLGKKAAAGAPVPYPDPLEPRPG
notes: recombinant dimer with tags at both ends; also called D8-6aa-RP9
Turning to B3, in [13], the “Kinase Pot.” value was found to be 110 nM. Besides, the “FFC Pot.” value in assay [14] amounted to 10 nM. This molecule also returned a Kd in [15] of 0.53 nM.

B4: S374 (peptide)
peptide: XGSLDESFYDWFERQLGKK
chain: XGSLDESFYDWFERQLGKK
modifications: not fully specified; the two chains are joined N-terminus to N-terminus through chemical linker 17 of Table 3 (Table 7 prints an N-terminal Ald group on each chain)
notes: Synthetic RP9 homodimer (Site 1-Site 1, N-N)
In the case of B4, the Kd in assay [16] was 180 nM.

B5: D815-6aa-RP9 (peptide)
peptide: WLDQERAWLWCEISGRGCLSGGSGGSGSLDESFYDWFERQLGKK
notes: Site 2-Site 1 dimer peptide, recombinant; also called D815-RP9 (6 aa linker); D815-6-RP9
For the molecule B5, in assay [1], the “ED50 Growth” value was 50 nM, the “IC50 Antag.” value is > 500 nM, the Ki/ED50 was 0.8 and the “Max Action” value was > 50%. Besides, in assay [2], the IC50 was 35.7 nM. For the same molecule, the Ki in assay [3] is 36 nM.

B6: 521 (peptide)
peptide: MADYKDDDDKGSLDESFYDWFERQLGKKGGSGGSGSLDESFYDWFERQLGKKAAAGAPVPYPDPLEPRPG
notes: recombinant dimer with tags at both ends (FLAG, E-Tag); also called RP9-6aa-RP9
For the molecule B6, in assay [13], the “Kinase Pot.” value was found to be 1400 nM. Besides, in assay [14], the “FFC Pot.” value came out at 3 nM. In assay [15], the affinity, expressed as Kd, was 25 nM.
Regarding WLDQERAWLWCEISGRGCLS (disulfide 11-18 (inferred)) [D815], the “IGF-1 agonist (proliferation) assay, FDCP-2 cells; ED50” value (“IGF-1 agonist (proliferation) assay” for short) in assay [17] was ~2000 nM.

B7: 437 (other, not shown: large carriers; small tags and cut ends)
chain: NNNNLGIEGRISEFIEGRAQPAMAFHENFYDWFVRQVSAAAGAPVPYPDPLEPRAA
notes: MBP fusion
B7 gave a Kd in [12] of 8300 nM.

B8: 436 (other, not shown: large carriers; small tags and cut ends)
chain: NNNNLGIEGRISEFIEGRAQPAMAFHENFYDWFVRQVSGGSGGSGGSFHENFYDWFVRQVSAAAGAPVPYPDPLEPRAA
notes: MBP fusion
With B8, the Kd in assay [12] stood at 410 nM.

B9: 535 (peptide)
peptide: MADYKDDDDKGSLDESFYDWFERQLGKKGGSGGSGGSGGSGSLDESFYDWFERQLGKKAAAGAPVPYPDPLEPRPG
Take B9: the “Kinase Pot.” value in assay [13] was 1000 nM. In addition, the “FFC Pot.” value in assay [14] is 2 nM.

B10: 537 (peptide)
peptide: MADYKDDDDKGSLDESFYDWFERQLGKKGGSGGSWLDQEWAWVQCEVYGRGCPSAAAGAPVPYPDPLEPRPG
notes: recombinant dimer with tags at both ends; also called RP9-6aa-D8
Turning to B10, the “FFC Pot.” value in assay [14] stood at 10 nM. The figures for the Kd in assay [15] and in [18] were 0.092 nM and 980 nM, respectively.
As for ESFYDWFERQ (Synthetic truncated RP9 monomer peptide) [S400], the Kd in assay [8] and in assay [9] was 630 nM each time.

B11: 463 (other, not shown: large carriers; small tags and cut ends)
chain: NNNNLGIEGRISEFIEGRAQPAMAFHENFYDWFVRQVSGGSFHENFYDWFVRQVSAAAGAPVPYPDPLEPRAA
notes: MBP fusion
In assay [12], B11 displayed an equilibrium dissociation constant (Kd) of 960 nM.

B12: S371 (peptide)
peptide: GSLDESFYDWFERQLGKK
notes: Synthetic RP9 monomer peptide; also called RP9; S371 (RP9)
As to B12, the Kd in assay [16] and in [9] was 630 nM throughout.
Consider GSLDESFYDWFERQLG (also called RP9 minus terminal lysines) [S386], for which the Kd in [8] was 320 nM.

B13: D815-12aa-RP9 (peptide)
peptide: WLDQERAWLWCEISGRGCLSGGSGGSGGSGGSGSLDESFYDWFERQLGKK
modifications: not fully specified (bridges); cysteine pairing not given here
notes: Site 2-Site 1 dimer peptide, recombinant; also called D815-RP9 (12 aa linker); D815-12-RP9
On to B13, for which, in assay [1], the “ED50 Growth” value stood at 10000 nM, the Ki/ED50 was 0.0003 and the “Max Action” value is 100. Besides, the IC50 in assay [2] worked out at 3.22 nM. Besides, the Ki in [3] was found to be 3 nM.
Take GIISQSCPESFYDWFAGQVSDPWWCW [G33]: in [17], the “IGF-1 agonist (proliferation) assay” value was ~10000 nM.

B14: 435 (other, not shown: large carriers; small tags and cut ends)
chain: NNNNLGIEGRISEFIEGRAQPAMAFHENFYDWFVRQVSGGSFHENFYDWFVRQVSGGSFHENFYDWFVRQVSAAAGAPVPYPDPLEPRAA
notes: MBP fusion
As for B14, in assay [12], binding was put at a Kd of 2000 nM.
In the case of GSLDESFYDWFERQ (Synthetic truncated RP9 monomer peptide) [S394], the Kd in assay [8] and in [9] was 81 nM throughout.
With GSLDESFYDWFERQL (Synthetic truncated RP9 monomer peptide) [S395], the Kd in assay [8] and in assay [9] was 91 nM throughout.
Turning to DYKDFYDAIDQLVRGSARAGGTRD [20E2], the “IGF-1 agonist (proliferation) assay” value in assay [17] was > 10000 nM.

B15: S415 (peptide)
chain: ESFYDWFERQLGK
modifications: not fully specified (residue 13, C-terminus); also: dimer, two chains joined C-terminus to C-terminus through linker 23
As for B15, the Kd in assay [9] was 100 nM.
